{"source": "paper PMC9482650", "about": "“Quantitative fragmentomics allow affinity mapping of interactomes” (Nature Communications, 2022)", "binders": {"B1": {"name": "PLCB2, Q00722 (peptide)", "chain": "AKADAQESRL"}, "B2": {"name": "FZD1, Q9UP38 (peptide)", "chain": "TNSKQGETTV"}}, "data": [{"molecular_target": "SCRIB_3, Q14160", "sequence (Q14160 999-1103)": "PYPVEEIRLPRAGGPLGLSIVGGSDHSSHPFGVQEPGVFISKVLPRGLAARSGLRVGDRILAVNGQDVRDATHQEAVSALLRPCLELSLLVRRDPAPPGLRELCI", "experiment": "holdup assay", "parameters": "key: below the threshold = too weak to quantify, mostly under pKd 3.1 to 4", "details": "plain residues with an end cap or a label only (N-terminal biotin on a linker: ado-ado)", "values": [{"binder": "B1", "pKd": 4.44}, {"binder": "B2", "pKd": 4.38}]}, {"molecular_target": "T1, GRIP1_3, Q9Y3R0", "T1 sequence (Q9Y3R0 247-346, limits assumed, looked up)": "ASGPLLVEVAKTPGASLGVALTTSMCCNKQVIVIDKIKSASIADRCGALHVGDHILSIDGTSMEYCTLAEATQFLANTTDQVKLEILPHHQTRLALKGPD", "experiment": "holdup assay", "parameters": "key: below the threshold = too weak to quantify, mostly under pKd 3.1 to 4", "details": "plain residues with an end cap or a label only (N-terminal biotin on a linker: ado-ado)", "values": [{"binder": "B1", "pKd": "below the threshold"}, {"binder": "B2", "pKd": "below the threshold"}]}, {"molecular_target": "T2, GRIP1_5, Q9Y3R0", "T2 sequence (Q9Y3R0 568-668, limits assumed, looked up)": "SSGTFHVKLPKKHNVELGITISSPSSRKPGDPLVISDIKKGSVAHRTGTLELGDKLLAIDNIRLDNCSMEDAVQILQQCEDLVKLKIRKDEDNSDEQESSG", "experiment": "holdup assay", "parameters": "key: below the threshold = too weak to quantify, mostly under pKd 3.1 to 4", "details": "plain residues with an end cap or a label only (N-terminal biotin on a linker: ado-ado)", "values": [{"binder": "B1", "pKd": "below the threshold"}, {"binder": "B2", "pKd": "below the threshold"}]}, {"molecular_target": "GRIP2_7, Q9C0E4", "sequence (Q9C0E4 934-1023)": "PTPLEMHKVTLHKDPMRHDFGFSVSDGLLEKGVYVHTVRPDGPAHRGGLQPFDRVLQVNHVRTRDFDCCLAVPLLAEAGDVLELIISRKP", "experiment": "holdup assay", "parameters": "key: below the threshold = too weak to quantify, mostly under pKd 3.1 to 4", "details": "plain residues with an end cap or a label only (N-terminal biotin on a linker: ado-ado)", "values": [{"binder": "B1", "pKd": "below the threshold"}, {"binder": "B2", "pKd": "below the threshold"}]}, {"molecular_target": "LNX1_3, Q8TBB1", "sequence (Q8TBB1 500-596)": "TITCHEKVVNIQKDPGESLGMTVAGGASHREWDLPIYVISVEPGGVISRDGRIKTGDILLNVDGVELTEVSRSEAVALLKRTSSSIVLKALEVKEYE", "experiment": "holdup assay", "parameters": "key: below the threshold = too weak to quantify, mostly under pKd 3.1 to 4", "details": "plain residues with an end cap or a label only (N-terminal biotin on a linker: ado-ado)", "values": [{"binder": "B1", "pKd": "below the threshold"}, {"binder": "B2", "pKd": "below the threshold"}]}, {"molecular_target": "DLG4_3, P78352", "sequence (P78352 306-403)": "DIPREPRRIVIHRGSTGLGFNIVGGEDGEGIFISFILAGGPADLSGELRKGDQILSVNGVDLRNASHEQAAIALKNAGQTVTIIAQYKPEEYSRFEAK", "experiment": "holdup assay", "parameters": "key: below the threshold = too weak to quantify, mostly under pKd 3.1 to 4", "details": "plain residues with an end cap or a label only (N-terminal biotin on a linker: ado-ado)", "values": [{"binder": "B1", "pKd": "below the threshold"}, {"binder": "B2", "pKd": 3.76}]}, {"molecular_target": "T3, APBA3_1, O96018", "T3 sequence (O96018 389-490, limits assumed, looked up)": "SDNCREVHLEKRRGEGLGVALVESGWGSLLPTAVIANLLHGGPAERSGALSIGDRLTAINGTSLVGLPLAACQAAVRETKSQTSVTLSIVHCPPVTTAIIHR", "experiment": "holdup assay", "parameters": "key: below the threshold = too weak to quantify, mostly under pKd 3.1 to 4", "details": "plain residues with an end cap or a label only (N-terminal biotin on a linker: ado-ado)", "values": [{"binder": "B1", "pKd": "below the threshold"}, {"binder": "B2", "pKd": "below the threshold"}]}, {"molecular_target": "DLG5_1, Q8TDM6", "sequence (Q8TDM6 617-713)": "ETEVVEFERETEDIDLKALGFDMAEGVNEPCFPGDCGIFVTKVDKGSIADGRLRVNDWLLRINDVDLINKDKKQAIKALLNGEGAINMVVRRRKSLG", "experiment": "holdup assay", "parameters": "key: below the threshold = too weak to quantify, mostly under pKd 3.1 to 4", "details": "plain residues with an end cap or a label only (N-terminal biotin on a linker: ado-ado)", "values": [{"binder": "B1", "pKd": "below the threshold"}, {"binder": "B2", "pKd": 3.91}]}, {"molecular_target": "LNX1_2, Q8TBB1", "sequence (Q8TBB1 371-470)": "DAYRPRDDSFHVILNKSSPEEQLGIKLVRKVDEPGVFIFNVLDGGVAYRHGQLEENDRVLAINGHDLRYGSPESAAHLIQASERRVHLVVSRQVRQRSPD", "experiment": "holdup assay", "parameters": "key: below the threshold = too weak to quantify, mostly under pKd 3.1 to 4", "details": "plain residues with an end cap or a label only (N-terminal biotin on a linker: ado-ado)", "values": [{"binder": "B1", "pKd": "below the threshold"}, {"binder": "B2", "pKd": 3.68}]}, {"molecular_target": "T4, DFNB31_1, Q9P202", "T4 sequence (Q9P202 135-233, limits assumed, looked up)": "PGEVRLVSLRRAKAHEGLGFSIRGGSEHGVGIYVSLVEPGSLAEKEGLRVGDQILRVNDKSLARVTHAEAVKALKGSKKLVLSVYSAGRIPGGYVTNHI", "experiment": "holdup assay", "parameters": "key: below the threshold = too weak to quantify, mostly under pKd 3.1 to 4", "details": "plain residues with an end cap or a label only (N-terminal biotin on a linker: ado-ado)", "values": [{"binder": "B1", "pKd": 4.11}, {"binder": "B2", "pKd": 3.77}]}, {"molecular_target": "T5, PDZRN3_1, Q9UPQ7", "T5 sequence (Q9UPQ7 244-349, limits assumed, looked up)": "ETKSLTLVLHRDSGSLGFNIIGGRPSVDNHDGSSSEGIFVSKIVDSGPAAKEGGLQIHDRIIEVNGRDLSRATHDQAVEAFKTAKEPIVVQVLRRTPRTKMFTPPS", "experiment": "holdup assay", "parameters": "key: below the threshold = too weak to quantify, mostly under pKd 3.1 to 4", "details": "plain residues with an end cap or a label only (N-terminal biotin on a linker: ado-ado)", "values": [{"binder": "B1", "pKd": 4.42}, {"binder": "B2", "pKd": 3.85}]}, {"molecular_target": "GORASP1, Q9BQQ3", "sequence (Q9BQQ3 1-208)": "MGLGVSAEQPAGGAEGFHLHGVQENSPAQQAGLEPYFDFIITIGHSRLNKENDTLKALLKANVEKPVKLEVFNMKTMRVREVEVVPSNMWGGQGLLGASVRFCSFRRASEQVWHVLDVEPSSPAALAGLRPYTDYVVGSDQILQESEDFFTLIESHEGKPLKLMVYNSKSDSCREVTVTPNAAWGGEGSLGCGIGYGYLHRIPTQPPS", "experiment": "holdup assay", "parameters": "key: below the threshold = too weak to quantify, mostly under pKd 3.1 to 4", "details": "plain residues with an end cap or a label only (N-terminal biotin on a linker: ado-ado)", "values": [{"binder": "B1", "pKd": "below the threshold"}, {"binder": "B2", "pKd": "below the threshold"}]}, {"molecular_target": "T6, SNTB1, Q13884", "T6 sequence (Q13884 107-205, limits assumed, looked up)": "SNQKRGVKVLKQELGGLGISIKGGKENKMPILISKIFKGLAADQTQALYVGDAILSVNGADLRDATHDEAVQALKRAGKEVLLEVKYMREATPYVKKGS", "experiment": "holdup assay", "parameters": "key: below the threshold = too weak to quantify, mostly under pKd 3.1 to 4", "details": "plain residues with an end cap or a label only (N-terminal biotin on a linker: ado-ado)", "values": [{"binder": "B1", "pKd": 4.43}, {"binder": "B2", "pKd": 4.72}]}, {"molecular_target": "GIPC2, Q8TF65", "sequence (Q8TF65 112-203)": "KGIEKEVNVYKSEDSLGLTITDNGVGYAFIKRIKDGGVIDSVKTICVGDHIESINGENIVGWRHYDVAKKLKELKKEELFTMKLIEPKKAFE", "experiment": "holdup assay", "parameters": "key: below the threshold = too weak to quantify, mostly under pKd 3.1 to 4", "details": "plain residues with an end cap or a label only (N-terminal biotin on a linker: ado-ado)", "values": [{"binder": "B1", "pKd": "below the threshold"}, {"binder": "B2", "pKd": 4.18}]}, {"molecular_target": "Inadl_6, Q8NI35", "sequence (Q8NI35 1058-1167)": "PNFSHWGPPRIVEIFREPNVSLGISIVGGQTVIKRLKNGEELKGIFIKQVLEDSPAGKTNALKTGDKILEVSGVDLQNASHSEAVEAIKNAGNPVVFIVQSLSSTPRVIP", "experiment": "holdup assay", "parameters": "key: below the threshold = too weak to quantify, mostly under pKd 3.1 to 4", "details": "plain residues with an end cap or a label only (N-terminal biotin on a linker: ado-ado)", "values": [{"binder": "B1", "pKd": 3.48}, {"binder": "B2", "pKd": "below the threshold"}]}, {"molecular_target": "MAGI2_6, Q86UL8", "sequence (Q86UL8 1141-1229)": "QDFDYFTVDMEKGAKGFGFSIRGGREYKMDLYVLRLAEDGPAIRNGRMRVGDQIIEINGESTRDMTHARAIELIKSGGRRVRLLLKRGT", "experiment": "holdup assay", "parameters": "key: below the threshold = too weak to quantify, mostly under pKd 3.1 to 4", "details": "plain residues with an end cap or a label only (N-terminal biotin on a linker: ado-ado)", "values": [{"binder": "B1", "pKd": "below the threshold"}, {"binder": "B2", "pKd": 4.03}]}, {"molecular_target": "MAGI1_1, Q96QZ7", "sequence (Q96QZ7 1-106)": "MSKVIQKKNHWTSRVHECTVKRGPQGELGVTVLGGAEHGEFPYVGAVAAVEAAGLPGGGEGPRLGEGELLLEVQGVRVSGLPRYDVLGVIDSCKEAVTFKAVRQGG", "experiment": "holdup assay", "parameters": "key: below the threshold = too weak to quantify, mostly under pKd 3.1 to 4", "details": "plain residues with an end cap or a label only (N-terminal biotin on a linker: ado-ado)", "values": [{"binder": "B1", "pKd": "below the threshold"}, {"binder": "B2", "pKd": "below the threshold"}]}, {"molecular_target": "T7, TX1BP3, O14907", "T7 sequence (O14907 10-122, limits assumed, looked up)": "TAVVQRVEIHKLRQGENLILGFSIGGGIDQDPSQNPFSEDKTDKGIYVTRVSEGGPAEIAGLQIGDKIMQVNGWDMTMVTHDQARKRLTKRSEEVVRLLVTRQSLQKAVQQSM", "experiment": "holdup assay", "parameters": "key: below the threshold = too weak to quantify, mostly under pKd 3.1 to 4", "details": "plain residues with an end cap or a label only (N-terminal biotin on a linker: ado-ado)", "values": [{"binder": "B1", "pKd": 3.96}, {"binder": "B2", "pKd": 4.17}]}, {"molecular_target": "SNX27, Q96L92", "experiment": "holdup assay", "parameters": "key: below the threshold = too weak to quantify, mostly under pKd 3.1 to 4", "details": "plain residues with an end cap or a label only (N-terminal biotin on a linker: ado-ado)", "values": [{"binder": "B1", "pKd": 5.21}, {"binder": "B2", "pKd": 5.5}]}, {"molecular_target": "FRMPD4, Q14CM0", "sequence (Q14CM0 67-160)": "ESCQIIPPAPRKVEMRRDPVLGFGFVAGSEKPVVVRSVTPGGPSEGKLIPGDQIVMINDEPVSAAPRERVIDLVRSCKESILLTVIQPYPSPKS", "experiment": "holdup assay", "parameters": "key: below the threshold = too weak to quantify, mostly under pKd 3.1 to 4", "details": "plain residues with an end cap or a label only (N-terminal biotin on a linker: ado-ado)", "values": [{"binder": "B1", "pKd": 4.05}, {"binder": "B2", "pKd": "below the threshold"}]}, {"molecular_target": "MAGI2_5, Q86UL8", "sequence (Q86UL8 915-1017)": "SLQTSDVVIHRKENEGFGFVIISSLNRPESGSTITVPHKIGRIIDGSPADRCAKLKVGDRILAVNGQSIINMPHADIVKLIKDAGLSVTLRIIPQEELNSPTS", "experiment": "holdup assay", "parameters": "key: below the threshold = too weak to quantify, mostly under pKd 3.1 to 4", "details": "plain residues with an end cap or a label only (N-terminal biotin on a linker: ado-ado)", "values": [{"binder": "B1", "pKd": 3.59}, {"binder": "B2", "pKd": "below the threshold"}]}, {"molecular_target": "T8, RADIL, Q96JH8", "T8 sequence (Q96JH8 971-1071, limits assumed, looked up)": "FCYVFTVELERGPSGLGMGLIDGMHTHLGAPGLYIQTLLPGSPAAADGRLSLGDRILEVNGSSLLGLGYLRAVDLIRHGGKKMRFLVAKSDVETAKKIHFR", "experiment": "holdup assay", "parameters": "key: below the threshold = too weak to quantify, mostly under pKd 3.1 to 4", "details": "plain residues with an end cap or a label only (N-terminal biotin on a linker: ado-ado)", "values": [{"binder": "B1", "pKd": "below the threshold"}, {"binder": "B2", "pKd": 3.63}]}, {"molecular_target": "PDZRN4_1, Q6ZMN7", "sequence (Q6ZMN7 213-318)": "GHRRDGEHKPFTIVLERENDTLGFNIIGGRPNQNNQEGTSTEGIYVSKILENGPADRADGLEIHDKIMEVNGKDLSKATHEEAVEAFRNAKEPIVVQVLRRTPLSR", "experiment": "holdup assay", "parameters": "key: below the threshold = too weak to quantify, mostly under pKd 3.1 to 4", "details": "plain residues with an end cap or a label only (N-terminal biotin on a linker: ado-ado)", "values": [{"binder": "B1", "pKd": 4.5}, {"binder": "B2", "pKd": 4.06}]}, {"molecular_target": "Inadl_1, Q8NI35", "sequence (Q8NI35 113-229)": "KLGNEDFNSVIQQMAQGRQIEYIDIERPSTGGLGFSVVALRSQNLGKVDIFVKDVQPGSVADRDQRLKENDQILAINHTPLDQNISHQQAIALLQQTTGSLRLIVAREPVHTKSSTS", "experiment": "holdup assay", "parameters": "key: below the threshold = too weak to quantify, mostly under pKd 3.1 to 4", "details": "plain residues with an end cap or a label only (N-terminal biotin on a linker: ado-ado)", "values": [{"binder": "B1", "pKd": "below the threshold"}, {"binder": "B2", "pKd": "below the threshold"}]}, {"molecular_target": "PICK1, Q9NRD5", "sequence (Q9NRD5 17-115)": "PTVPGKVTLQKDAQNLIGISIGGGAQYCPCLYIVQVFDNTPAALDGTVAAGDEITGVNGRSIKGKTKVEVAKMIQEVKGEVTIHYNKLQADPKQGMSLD", "experiment": "holdup assay", "parameters": "key: below the threshold = too weak to quantify, mostly under pKd 3.1 to 4", "details": "plain residues with an end cap or a label only (N-terminal biotin on a linker: ado-ado)", "values": [{"binder": "B1", "pKd": "below the threshold"}, {"binder": "B2", "pKd": 4.2}]}, {"molecular_target": "IL16_4, Q14005", "sequence (Q14005 1229-1329)": "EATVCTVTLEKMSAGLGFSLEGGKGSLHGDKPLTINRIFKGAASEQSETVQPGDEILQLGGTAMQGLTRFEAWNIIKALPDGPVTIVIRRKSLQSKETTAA", "experiment": "holdup assay", "parameters": "key: below the threshold = too weak to quantify, mostly under pKd 3.1 to 4", "details": "plain residues with an end cap or a label only (N-terminal biotin on a linker: ado-ado)", "values": [{"binder": "B1", "pKd": 3.61}, {"binder": "B2", "pKd": 3.68}]}, {"molecular_target": "GRIP2_4, Q9C0E4", "sequence (Q9C0E4 446-548)": "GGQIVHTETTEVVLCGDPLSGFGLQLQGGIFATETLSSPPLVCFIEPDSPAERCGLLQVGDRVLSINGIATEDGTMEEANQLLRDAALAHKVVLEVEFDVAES", "experiment": "holdup assay", "parameters": "key: below the threshold = too weak to quantify, mostly under pKd 3.1 to 4", "details": "plain residues with an end cap or a label only (N-terminal biotin on a linker: ado-ado)", "values": [{"binder": "B1", "pKd": "below the threshold"}, {"binder": "B2", "pKd": "below the threshold"}]}, {"molecular_target": "MAGI1_2, Q96QZ7", "sequence (Q96QZ7 456-580)": "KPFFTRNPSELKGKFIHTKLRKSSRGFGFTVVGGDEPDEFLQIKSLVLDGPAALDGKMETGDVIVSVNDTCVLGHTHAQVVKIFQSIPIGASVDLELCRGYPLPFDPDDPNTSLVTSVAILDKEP", "experiment": "holdup assay", "parameters": "key: below the threshold = too weak to quantify, mostly under pKd 3.1 to 4", "details": "plain residues with an end cap or a label only (N-terminal biotin on a linker: ado-ado)", "values": [{"binder": "B1", "pKd": "below the threshold"}, {"binder": "B2", "pKd": 3.82}]}, {"molecular_target": "LNX1_1, Q8TBB1", "sequence (Q8TBB1 261-371)": "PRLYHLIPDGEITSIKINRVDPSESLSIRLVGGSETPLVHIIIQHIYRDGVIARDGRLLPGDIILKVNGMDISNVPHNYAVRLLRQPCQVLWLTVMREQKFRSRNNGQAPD", "experiment": "holdup assay", "parameters": "key: below the threshold = too weak to quantify, mostly under pKd 3.1 to 4", "details": "plain residues with an end cap or a label only (N-terminal biotin on a linker: ado-ado)", "values": [{"binder": "B1", "pKd": 3.58}, {"binder": "B2", "pKd": "below the threshold"}]}]}
